Measured values published in US20230114801A1 (SYSTIMMUNE, published 2023).
Each block holds one binder with its values, some of them ahead of it.

Legend:
human CD3 [1] = molecular target: T1, human CD3 (human, UniProt P07766 23-126; P04234 22-105); assay: BLI (Octet), unstapled control mAb or Fc-scFv
T1 construct: also called His-tagged human CD3; human CD3 (Acro CDD-H52W1)

SI-49P9 = molecular target: T2, SI-49P9; assay: BLI (Octet); conditions not stated
T2 construct: penta-miniGNC; D1 αCD3, D2 αCD19, D3 NKG2D receptor dimer, D4 41BBL, D5 αPD-L1

human 4-1BB = molecular target: T3, human 4-1BB (human, UniProt Q07011 24-186, limits assumed); assay: BLI (Octet), unstapled control mAb or Fc-scFv
T3 construct: Soluble antigen in Octet; construct not described

human CD3 [2] = molecular target: T1, human CD3; assay: BLI (Octet); conditions not stated
NKG2D ligand = assay: BLI (Octet); conditions and ligand not stated
human PD-L1 = molecular target: T4, human PD-L1 (human, UniProt Q9NZQ7 19-238); assay: BLI (Octet), unstapled control mAb or Fc-scFv
T4 construct: Soluble antigen in Octet; bought; also called human PD-L1 (Acro PD1-H5229)

T2 sequence (chain, as listed by the source): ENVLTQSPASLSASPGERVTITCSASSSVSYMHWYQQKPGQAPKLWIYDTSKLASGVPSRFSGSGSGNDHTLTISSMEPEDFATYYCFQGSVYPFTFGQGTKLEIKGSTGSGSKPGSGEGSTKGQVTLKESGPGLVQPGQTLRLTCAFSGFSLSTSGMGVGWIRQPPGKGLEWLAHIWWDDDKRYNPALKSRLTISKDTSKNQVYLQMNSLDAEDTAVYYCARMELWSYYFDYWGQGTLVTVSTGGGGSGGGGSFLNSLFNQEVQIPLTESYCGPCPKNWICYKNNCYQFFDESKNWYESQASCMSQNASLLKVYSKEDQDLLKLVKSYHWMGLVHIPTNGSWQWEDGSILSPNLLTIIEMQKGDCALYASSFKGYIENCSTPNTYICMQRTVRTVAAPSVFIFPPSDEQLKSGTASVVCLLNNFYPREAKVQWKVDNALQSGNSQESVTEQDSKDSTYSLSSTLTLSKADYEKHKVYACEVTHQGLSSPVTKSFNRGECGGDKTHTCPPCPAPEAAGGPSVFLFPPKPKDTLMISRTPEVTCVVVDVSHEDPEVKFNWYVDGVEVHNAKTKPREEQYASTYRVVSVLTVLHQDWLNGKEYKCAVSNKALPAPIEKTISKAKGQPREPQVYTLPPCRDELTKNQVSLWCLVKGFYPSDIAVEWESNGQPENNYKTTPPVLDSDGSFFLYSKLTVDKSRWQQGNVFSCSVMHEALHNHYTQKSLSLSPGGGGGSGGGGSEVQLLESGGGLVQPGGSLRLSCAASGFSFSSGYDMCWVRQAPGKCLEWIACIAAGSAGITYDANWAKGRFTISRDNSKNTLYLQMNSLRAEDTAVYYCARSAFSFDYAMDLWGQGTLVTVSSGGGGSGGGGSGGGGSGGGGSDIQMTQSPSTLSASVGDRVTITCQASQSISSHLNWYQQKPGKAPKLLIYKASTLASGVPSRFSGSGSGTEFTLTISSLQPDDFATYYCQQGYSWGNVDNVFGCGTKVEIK

Kd (human 4-1BB): 14.9 nM
B3: SI-35FS11 (Fc fusion)
chain: EPKSSDKTHTCPPCPAPEAAGAPSVFLFPPKPKDTLMISRTPEVTCVVVDVSHEDPEVKFNWYVDGVEVHNAKTKPREEQYNSTYRVVSVLTVLHQDWLNGKEYKCAVSNKALPAPIEKTISKAKGQPREPQVYTLPPSRDELTKNQVSLTCLVKGFYPSDIAVEWESNGQPENNYKTTPPVLDSDGSFFLYSKLTVDKSRWQQGNVFSCSVMHEALHNHYTQKSLSLSPGGGGGSGGGGSRSLVESGGGLVQPGGSLRLSCTASGFTISSYHMQWVRQAPGKGLEYIGTISSGGNVYYASSARGRFTISRPSSKNTVDLQMNSLRAEDTAVYYCARDSGYSDPMWGQGTLVTVSSGGGGSGGGGSGGGGSGGGGSDVVMTQSPSSVSASVGDRVTITCQASQNIRTYLSWYQQKPGKAPKLLIYAAANLASGVPSRFSGSGSGTDFTLTISDLEPGDAATYYCQSTYLGTDYVGGAFGGGTKVEIK
notes: Fc-scFv control for the α4-1BB domain; also called SI-35SF11; α4-1BB Fc-scFv

Kd (human CD3 [2]): 32.2 nM
Kd (NKG2D ligand): 16 nM
B4: SI-49R27 (bispecific antibody, human IgG1, kappa, L234A L235A, N297A)
chain 1: EIVMTQSPSTLSASVGDRVIITCQASESISSWLAWYQQKPGKAPKLLIYEASKLASGVPSRFSGSGSGAEFTLTISSLQPDDFATYYCQGYFYFISRTYVNSFGCGTKLTVLGSTGSGSKPGSGEGSTKGEVQLVESGGGLVQPGGSLRLSCTASGFTISTNAMSWVRQAPGKCLEWVGVITGRDITYYASWAKGRFTISRDTSKNTVYLQMNSLRAEDTAVYYCARDGGSSAITSNNIWGQGTLVTVSTGGGGSGGGGSFLNSLFNQEVQIPLTESYCGPCPKNWICYKNNCYQFFDESKNWYESQASCMSQNASLLKVYSKEDQDLLKLVKSYHWMGLVHIPTNGSWQWEDGSILSPNLLTIIEMQKGDCALYASSFKGYIENCSTPNTYICMQRTVASTKGPSVFPLAPSSKSTSGGTAALGCLVKDYFPEPVTVSWNSGALTSGVHTFPAVLQSSGLYSLSSVVTVPSSSLGTQTYICNVNHKPSNTKVDKRVEPKSCDKTHTCPPCPAPEAAGGPSVFLFPPKPKDTLMISRTPEVTCVVVDVSHEDPEVKFNWYVDGVEVHNAKTKPREEQYASTYRVVSVLTVLHQDWLNGKEYKCAVSNKALPAPIEKTISKAKGQPREPQVCTLPPSRDELTKNQVSLSCAVKGFYPSDIAVEWESNGQPENNYKTTPPVLDSDGSFFLVSKLTVDKSRWQQGNVFSCSVMHEALHNHYTQKSLSLSPG
chain 2: not shown
notes: bi-miniGNC; D1 αCD3, D3 NKG2D receptor dimer

Further lines, the binder ahead of its results:

B1: SI-9C21 (antibody, human IgG1, kappa, V domains shown)
VH: EVQLVESGGGLVQPGGSLRLSCTASGFTISTNAMSWVRQAPGKGLEWVGVITGRDITYYASWAKGRFTISRDTSKNTVYLQMNSLRAEDTAVYYCARDGGSSAITSNNIWGQGTLVTVSS
VL: EIVMTQSPSTLSASVGDRVIITCQASESISSWLAWYQQKPGKAPKLLIYEASKLASGVPSRFSGSGSGAEFTLTISSLQPDDFATYYCQGYFYFISRTYVNSFGQGTKLTVLR
notes: monoclonal antibody control for the αCD3 domain; also called αCD3 mAb; D3 = αCD3 control
Kd (human CD3 [1]): 26.3 nM

B2: CD19 (receptor, UniProt P15391 20-291, looked up)
chain: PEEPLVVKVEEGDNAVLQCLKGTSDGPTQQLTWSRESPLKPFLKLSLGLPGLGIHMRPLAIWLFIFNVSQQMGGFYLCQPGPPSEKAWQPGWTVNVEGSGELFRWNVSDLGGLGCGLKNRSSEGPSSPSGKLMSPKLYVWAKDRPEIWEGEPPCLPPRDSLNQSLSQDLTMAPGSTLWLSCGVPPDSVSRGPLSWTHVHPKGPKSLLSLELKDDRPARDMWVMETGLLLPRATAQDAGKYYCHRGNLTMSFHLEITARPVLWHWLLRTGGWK
Kd (SI-49P9): 6.4 nM

B5: SI-3FS11 (Fc fusion)
chain: EPKSSDKTHTCPPCPAPEAAGAPSVFLFPPKPKDTLMISRTPEVTCVVVDVSHEDPEVKFNWYVDGVEVHNAKTKPREEQYNSTYRVVSVLTVLHQDWLNGKEYKCAVSNKALPAPIEKTISKAKGQPREPQVYTLPPSRDELTKNQVSLTCLVKGFYPSDIAVEWESNGQPENNYKTTPPVLDSDGSFFLYSKLTVDKSRWQQGNVFSCSVMHEALHNHYTQKSLSLSPGGGGGSGGGGSEVQLLESGGGLVQPGGSLRLSCAASGFSFSSGYDMCWVRQAPGKGLEWIACIAAGSAGITYDANWAKGRFTISRDNSKNTLYLQMNSLRAEDTAVYYCARSAFSFDYAMDLWGQGTLVTVSSGGGGSGGGGSGGGGSGGGGSDIQMTQSPSTLSASVGDRVTITCQASQSISSHLNWYQQKPGKAPKLLIYKASTLASGVPSRFSGSGSGTEFTLTISSLQPDDFATYYCQQGYSWGNVDNVFGGGTKVEIK
notes: Fc-scFv control for the αPD-L1 domain; also called SI-3SF11; αPD-L1 Fc-scFv
Kd (human PD-L1): 0.94 nM
